Test results reported in the supplement of paper PMC9170038.

System: MS2 coat protein
Test: apparent KD of MS2 coat protein; higher = weaker reporter binding
Details: Eterna round: R107
Protocol: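 RNA-MaP round R107: designed RNA switches with theophylline, tryptophan, arginine or FMN aptamers are transcribed on-chip within common flanks. They are titrated with SNAP-549-labelled MS2 coat protein in RNA-MaP buffer (100 mM Tris pH 7.5, 80 mM KCl, 4 mM MgCl2), without ligand or with the indicated ligand. Median apparent KD per design.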

[1] = input ligand: theophylline 20 uM
[2] = input ligand: tryptophan 2.4 mM
[3] = input ligand: theophylline 2 mM

AAUUGCGUUGGUGAGGCGGUUAAUGGCGAUACCAGCGUGGAAACACGCCCUUGGCAGCGCCAAAACAUGAGGAUCACCCAUGUUA [Liberec]
apparent KD of MS2 coat protein (input ligand: arginine 13.2 mM): 50.7 nM
apparent KD of MS2 coat protein [1]: 149 nM
apparent KD of MS2 coat protein [2]: 82.5 nM

ACACAUGAGGAUCACCCAUGUCCAAUAGAUACCAGUGAUACAGUGCACCCUUGGCAGCUGUUACUGAGUAAUGGUUCCCUCGGAA [Same State Theophylline A GF2]
apparent KD of MS2 coat protein (input ligand: arginine 13.2 mM): 26.8 nM
apparent KD of MS2 coat protein [1]: 48.6 nM
apparent KD of MS2 coat protein [2]: 37.5 nM

ACACCGAAAGGUGCAUUUUCCUUUUCAGAUACCAGACUUUACGUUGUCCCUUGGCAGCUGUAUCACAUGAGGAUCACCCAUGUUG [JR_SSTheophyA_Sub012]
apparent KD of MS2 coat protein (input ligand: arginine 13.2 mM): 16 nM
apparent KD of MS2 coat protein [1]: 21.4 nM
apparent KD of MS2 coat protein [2]: 15.9 nM

ACACGAAGCUGAAGGAGCGUGGUACAAGUUUUUACAUGAGGAUCACCCAUGUUUCGUCAAUCACAGGUAGGUCGCAGAUGCGUGA [#08 Same State - Arginine B]
apparent KD of MS2 coat protein (input ligand: arginine 13.2 mM): 32.1 nM
apparent KD of MS2 coat protein (input ligand: none): 29.2 nM
apparent KD of MS2 coat protein [1]: 42.5 nM
apparent KD of MS2 coat protein [3]: 36.6 nM
apparent KD of MS2 coat protein [2]: 25.9 nM

ACACGGAAUGAUGGAUCACCUCGUGAAUCACGAGGACCGGUACGGCCGCCACUCGAAAACCGUGACCUGUACGAAAAGUGCAGGA
apparent KD of MS2 coat protein (input ligand: arginine 13.2 mM): 322 nM
apparent KD of MS2 coat protein (input ligand: none): 89.7 nM
apparent KD of MS2 coat protein [1]: 232 nM
apparent KD of MS2 coat protein [3]: 250 nM
apparent KD of MS2 coat protein [2]: 56.5 nM

ACACGUGACAAGGAUACCAGCCUGGCUAGUUCAAACCCUCACAUGAGGAUCACCCAUGUAGGCCCUUGGCAGCCUAUAGUCUAAG [theeternabot_exclusion_MS2_Theo_B_38]
apparent KD of MS2 coat protein (input ligand: arginine 13.2 mM): 27.7 nM
apparent KD of MS2 coat protein [1]: 43.7 nM
apparent KD of MS2 coat protein [2]: 29.9 nM

ACAGGAAACGGAAGGAGCGGAAUUGCAACAUGAGGAUCACCCAUGUUGAUCGUGAGUUGCUUCCAGGUAGGUCGCCGUUACCUAA [Erorve]
apparent KD of MS2 coat protein (input ligand: arginine 13.2 mM): 30.1 nM
apparent KD of MS2 coat protein (input ligand: none): 33.6 nM
apparent KD of MS2 coat protein [1]: 39.4 nM
apparent KD of MS2 coat protein [3]: 44.2 nM
apparent KD of MS2 coat protein [2]: 30.4 nM

ACAUGAACAUGAGGAUCACCCAUGUAUGAUACCAGAAAAGAAGAGUUCCCUUGGCAGCGUACAACACAUGAGGAUCACCCAUGUG [kvcmullin]
apparent KD of MS2 coat protein (input ligand: arginine 13.2 mM): 20.3 nM
apparent KD of MS2 coat protein [1]: 26.7 nM
apparent KD of MS2 coat protein [2]: 26.1 nM

ACAUGAACAUGAGGAUCACCCAUGUGGGAUACCAGCGUGUAUGAGCGCCCUUGGCAGCUCAUGACAUGAGGAUCACCCAUGUUGG [Exclusion Theophylline A 4]
apparent KD of MS2 coat protein (input ligand: arginine 13.2 mM): 154 nM
apparent KD of MS2 coat protein [1]: 242 nM
apparent KD of MS2 coat protein [2]: 224 nM

ACAUGAGGAUCACCCAUGUAAGGUCUUGAUACCAGACGAGAAGUAGUCCCUUGGCAGCAAAUACGUGAGGGUCACACAUGUGUAA [edsmullin]
apparent KD of MS2 coat protein (input ligand: arginine 13.2 mM): 21.6 nM
apparent KD of MS2 coat protein [1]: 37.7 nM
apparent KD of MS2 coat protein [2]: 25.9 nM

ACAUGAGGAUCACCCAUGUAAUUUACAGAAGGAGCGUGAUGGAUCACAGGUAGGUCGCUGUACUGCGAAAGCACUCUCAUGAAUA [JR_Nu_SSArginiA_Sub025]
apparent KD of MS2 coat protein (input ligand: arginine 13.2 mM): 18.6 nM
apparent KD of MS2 coat protein (input ligand: none): 16.8 nM
apparent KD of MS2 coat protein [1]: 25.3 nM
apparent KD of MS2 coat protein [3]: 19.7 nM
apparent KD of MS2 coat protein [2]: 19 nM

ACAUGAGGAUCACCCAUGUACAUAAGGGAAGGAGCGCGGUGAAACGCAGGUAGGUCGCCCAUAAUAACAAUAAAUAAAUUCAUGU [LeftA1]
apparent KD of MS2 coat protein (input ligand: arginine 13.2 mM): 19.8 nM
apparent KD of MS2 coat protein (input ligand: none): 13.5 nM
apparent KD of MS2 coat protein [1]: 21 nM
apparent KD of MS2 coat protein [3]: 19 nM
apparent KD of MS2 coat protein [2]: 15.8 nM

ACAUGAGGAUCACCCAUGUACAUAAGGGAAGGAGCGCGGUGAGACGCAGGUAGGUCGCCCAUAAUAACAAACAUUAAAUUCAUGU [#25 Same State - Arginine A]
apparent KD of MS2 coat protein (input ligand: arginine 13.2 mM): 17.2 nM
apparent KD of MS2 coat protein (input ligand: none): 17.7 nM
apparent KD of MS2 coat protein [1]: 25.5 nM
apparent KD of MS2 coat protein [3]: 21.3 nM
apparent KD of MS2 coat protein [2]: 19.1 nM

ACAUGAGGAUCACCCAUGUACAUGAGGGAAGGAGCGGUACAUGUGCCAGGUAGGUCGCCCAACAGCAUCAGCCAUGUACAUCAGC [ppsmullin]
apparent KD of MS2 coat protein (input ligand: arginine 13.2 mM): 38.1 nM
apparent KD of MS2 coat protein (input ligand: none): 113 nM
apparent KD of MS2 coat protein [1]: 117 nM
apparent KD of MS2 coat protein [3]: 83.5 nM
apparent KD of MS2 coat protein [2]: 49.7 nM

ACAUGAGGAUCACCCAUGUAGUGGCACGAUACCAGCUGAUCCCGUGGCCCUUGGCAGCGUCCGGUGUGGUCUGCCGGGAUGGAGC [WBWMULLIN]
apparent KD of MS2 coat protein (input ligand: arginine 13.2 mM): 25 nM
apparent KD of MS2 coat protein [1]: 40.7 nM
apparent KD of MS2 coat protein [2]: 24.8 nM

ACAUGAGGAUCACCCAUGUAUCAACGGGAAGGAGCGCCAAACAAGGCAGGUAGGUCGCCCACAUGAGGAUCACCCGUGUGUUGGG [Exclusion Arginine A GF 30]
apparent KD of MS2 coat protein (input ligand: arginine 13.2 mM): 23.1 nM
apparent KD of MS2 coat protein (input ligand: none): 37.8 nM
apparent KD of MS2 coat protein [1]: 58.5 nM
apparent KD of MS2 coat protein [3]: 43.9 nM
apparent KD of MS2 coat protein [2]: 38.4 nM

ACAUGAGGAUCACCCAUGUAUUACCGGGAAGGAGCGCGUAAGGACGCAGGUAGGUCGCUCGGCGUCGUGCUGUAAAGCACGACGA [#1 Same State - Arginine A Attempt #24 (HarryS)]
apparent KD of MS2 coat protein (input ligand: arginine 13.2 mM): 67.7 nM
apparent KD of MS2 coat protein (input ligand: none): 14.9 nM
apparent KD of MS2 coat protein [1]: 18.6 nM
apparent KD of MS2 coat protein [3]: 14.9 nM
apparent KD of MS2 coat protein [2]: 15.3 nM

ACAUGAGGAUCACCCAUGUAUUACCGGGAAGGAGCGCGUAAGGACGCAGGUAGGUCGCUCGGCGUCUGGCCGCAAGGCUGGACGA [#1 Same State - Arginine A Attempt #18 (HarryS)]
apparent KD of MS2 coat protein (input ligand: arginine 13.2 mM): 12.6 nM
apparent KD of MS2 coat protein (input ligand: none): 15.5 nM
apparent KD of MS2 coat protein [1]: 21.3 nM
apparent KD of MS2 coat protein [3]: 15.2 nM
apparent KD of MS2 coat protein [2]: 15.9 nM

ACAUGAGGAUCACCCAUGUCAUGAGGUUCACGAGGACCGGUACGGCCGCCACUCGGGCUUCGGAUCACGGAUGUACAUGAUGAUC [kmullin1]
apparent KD of MS2 coat protein (input ligand: arginine 13.2 mM): 45.4 nM
apparent KD of MS2 coat protein [1]: 92.2 nM
apparent KD of MS2 coat protein [3]: 123 nM

ACAUGAGGAUCACCCAUGUGCAUCACCCGACGAGGACCGGUACGGCCGCCACUCGGGUAUAUAUUUGCAUCGGGUGAUUUUACGU [#25 Tryptophan A Same State]
apparent KD of MS2 coat protein (input ligand: arginine 13.2 mM): 15.5 nM
apparent KD of MS2 coat protein [1]: 59.5 nM
apparent KD of MS2 coat protein [3]: 61.6 nM

ACAUGAGGAUCACCCAUGUGGCGAGUUGAUACCAGACCCGCACUAGUCCCUUGGCAGCAACUACGUGUGGGACACCCAUGUUAAG [qpqmullin]
apparent KD of MS2 coat protein (input ligand: arginine 13.2 mM): 35.1 nM
apparent KD of MS2 coat protein (input ligand: none): 57.6 nM
apparent KD of MS2 coat protein [1]: 76.2 nM
apparent KD of MS2 coat protein [3]: 77.1 nM
apparent KD of MS2 coat protein [2]: 39.5 nM

ACAUGAGGAUCACCCAUGUUCCUCAUUGAUACCAGUGAAUUUAGACGCCCUUGGCAGCGAGUUUAAGAAGAAGAAGUUUUUUUUU [6.C]
apparent KD of MS2 coat protein (input ligand: arginine 13.2 mM): 124 nM
apparent KD of MS2 coat protein [1]: 819 nM
apparent KD of MS2 coat protein [2]: 875 nM

ACAUGAGGAUCACCCAUGUUCCUCUUUGAUACCAGUGAGUUGUUUCGCCCUUGGCAGCGAGUGUUUGUUUUUUUGUUUUGUUUGG [6.S]
apparent KD of MS2 coat protein (input ligand: arginine 13.2 mM): 137 nM
apparent KD of MS2 coat protein [1]: 314 nM
apparent KD of MS2 coat protein [2]: 229 nM

ACCAACCACACCCUUCACUGUUUUCGCCGCCGAGGACCGGUACGGCCGCCACUCGUACAAAGACAUGAGGAUCACCCAUGUGCCU [theeternabot_exclusion_MS2_Trp_A_7]
apparent KD of MS2 coat protein (input ligand: arginine 13.2 mM): 14.8 nM
apparent KD of MS2 coat protein [1]: 20.3 nM
apparent KD of MS2 coat protein [3]: 20.4 nM

ACGACGCAUACAGAUACCAGUAGAACAUGAGGAUCACCCAUGUCUGAGGCGCUCCGCCACUGCCCUUGGCAGCUGUAUGCGUCAG [SSTheo B #11]
apparent KD of MS2 coat protein (input ligand: arginine 13.2 mM): 9.42 nM
apparent KD of MS2 coat protein [1]: 12.6 nM
apparent KD of MS2 coat protein [2]: 9.81 nM

ACGGAGAUUGCUAAAUGUUGGCGAGCGGAUACCAGCCUAUAAUCGGGCCCUUGGCAGCCGACAUGAGGAUCACCCAUGUAAACAA [Gelelaor]
apparent KD of MS2 coat protein (input ligand: arginine 13.2 mM): 12.3 nM
apparent KD of MS2 coat protein (input ligand: none): 121 nM
apparent KD of MS2 coat protein [1]: 98.9 nM
apparent KD of MS2 coat protein [3]: 87.3 nM
apparent KD of MS2 coat protein [2]: 58.6 nM

ACGUAAAGCAGAAGGAGCGUCUUCAAAUUACAUGAGGAUCACCCAUGUUUUGUGAUCAUAUGACAGGUAGGUCGCUGAAGUACGA [JR_SSArginiB_Sub003]
apparent KD of MS2 coat protein (input ligand: arginine 13.2 mM): 58.3 nM
apparent KD of MS2 coat protein (input ligand: none): 71.7 nM
apparent KD of MS2 coat protein [1]: 97.5 nM
apparent KD of MS2 coat protein [3]: 86.4 nM
apparent KD of MS2 coat protein [2]: 66.5 nM
